T1: MBP-TRADD (full-length TRADD protein expressed as a MBP fusion) (UniProt Q15628 1-312)
T1 construct: mature; Immobilized on 96 well plates for ELISA
T1 sequence (looked up): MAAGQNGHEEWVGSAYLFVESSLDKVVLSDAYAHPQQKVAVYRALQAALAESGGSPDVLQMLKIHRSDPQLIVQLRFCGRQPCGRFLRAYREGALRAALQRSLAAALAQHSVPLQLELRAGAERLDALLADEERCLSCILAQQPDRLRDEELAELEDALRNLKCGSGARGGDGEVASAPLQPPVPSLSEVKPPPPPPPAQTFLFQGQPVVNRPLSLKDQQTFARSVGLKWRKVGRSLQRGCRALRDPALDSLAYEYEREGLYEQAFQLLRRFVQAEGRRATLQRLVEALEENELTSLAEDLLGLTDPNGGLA

B1: RIP DD E626A (other)
chain: MAIFDNTTSLTDKHLDPIRENLGKHWKNCARKLGFTQSQIDEIDHDYERDGLKAKVYQMLQKWVMREGIKGATVGKLAQALHQCSRIDLLSSLIYVSQNHHHHHHH
notes: Single point alanine mutant of the His-tagged RIP DD construct; soluble mutant
B2: RIP DD K627A (other)
chain: B1 chain with A54E, K55A
notes: Single point alanine mutant of the His-tagged RIP DD construct
B3: RIP DD K599A (other)
chain: B1 chain with K27A, A54E
notes: as for B2
B4: RIP DD R603A (other)
chain: B1 chain with R31A, A54E
notes: as for B1
B5: RIP DD K625A (other)
chain: B1 chain with K53A, A54E
notes: as for B2

Changes are numbered by the printed parent chain.

The target in this assay is T1, MBP-TRADD (full-length TRADD protein …). Put plainly: ELISA, MBP-TRADD immobilized on 96 well plates. How it is done: RIP DD binding assay. RIP DD binding to TRADD was determined by an enzyme-linked immunosorbent assay (ELISA). Ninety six well plates were coated overnight at 4° C. with 200 ng of MBP-TRADD, MBP-TNFR-1 DD, or MBP-IL1RacP (interleukin-1 receptor accessory protein) in coating buffer (25 mM MOPS pH 7.5, 150 mM NaCl, 10 mM DTT, 0.02% NaN_3). The plates were then incubated in blocking buffer (10 mM MOPS pH 7.5, 150 mM NaCl, 0.05% Tween 20, 0.1% Gelatin, 0.02% NaN_3) for one hour followed by one hour incubation with the different RIP DD proteins in binding buffer (100 mM Tris pH 7.5, 140 mM NaCl, 0.1 mM EDTA, 0.2% Triton X-100, 10 mM DTT). The plates were washed 4 times in 10 mM potassium phosphate buffer pH 7.4, 0.05% Tween 20. The bound His tagged proteins were then incubated for 30 minutes in 10 mM MOPS pH 7.5, 150 mM NaCl, 0.05% Tween 20, 0.02% NaN_3 anti-6× His biotinylated anti mouse antibody and strepavidin conjugated alkaline phosphatase. The plates were washed 4 times in 10 mM potassium phosphate buffer pH 7.4, 0.05% Tween. Tropix CDP-Star/Sapphire II solution was used for the luminescent detection of alkaline phosphatase.
Figure 4: FIGS. 4A and 4B. (A) Effect of the ionic strength on the binding of RIP-DD (30 μg/mL) to MBP-TRADD. (B) ELISA of RIP-DD binding to MBP-TRADD. MBP-TRADD was immobilized at 500 ng/well on 96 well plates. The reference at 100% is the binding of the wild type protein to MBP-TRADD. The values used for the determination of the binding percentage were obtained with ~30 μg/ml of soluble protein. Figure 4: Figure 5: FIG. 5. Sequence alignment of the death domains of FAS (SEQ ID NO:2) and RIP (SEQ ID NO:3). Identical residues and homologous residues are shaded. The helices identified from the NMR structure of FAS DD (Huang et al., 1996) are located above the sequence and the helices identified from the NMR structure of RIP DD are located below the sequence.
(ELISA stands for enzyme-linked immunosorbent assay.)
For B1, the binding result is reported as “no binding (tested: ~30 µg/ml of soluble protein)”.

On to B2, for which the binding result is “no binding (tested: ~30 µg/ml of soluble protein)”.

As for B3, the binding result is on record as “no binding (tested: ~30 µg/ml of soluble protein)”.

For B4, the binding result is on record as “no binding (tested: ~30 µg/ml of soluble protein)”.

As for B5, the binding result is reported as “no binding (tested: ~30 µg/ml of soluble protein)”.

Values taken from patent US7379820 (Pfizer, dated 2008).
